From publication PMC4339808

Biological target: 70S ribosome (vacant) (E. coli MRE600)

KM of the 70S ribosome-stimulated multiple turnover GTPase activity (0.01 uM protein, 100 uM GTP, 0 to 8 uM 70S) | Substance
10 µM | EF4 ΔP520 (from UniProt P60785 1-520) (domain or fragment)
0.32 µM | Elongation Factor 4 (EF4/LepA), wild type (from UniProt P60785 1-599) (enzyme)
7 µM | EF4 ΔG555 (from UniProt P60785 1-555) (domain or fragment)
36 µM | EF4 ΔA494 (from UniProt P60785 1-494) (domain or fragment)
